# Test system: K4 kissing-loop RNA reporter
# Test: apparent KD of K4 kissing-loop reporter; higher = weaker reporter binding
# Settings: Eterna round: R107; input ligand: arginine 13.2 mM
# Method: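 RNA-MaP round R107: designed RNA switches with theophylline, tryptophan, arginine or FMN aptamers are transcribed on-chip within common flanks. They are titrated with a labelled K4 kissing-loop RNA reporter in RNA-MaP buffer (100 mM Tris pH 7.5, 80 mM KCl, 4 mM MgCl2), without ligand or with the indicated ligand. Median apparent KD per design.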
# 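Also: bound reporter read as fluorescence of individual clusters on recovered sequencing chips by microscopy, with normalized cluster intensities fitted with a binding model.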
row,Sequence,apparent KD of K4 kissing-loop reporter [nM]
1,UCGCGUAAUGGAAGGAGCGGUGCCAGUGAUGUUGGAUACUGCGUGUAUUAGGUCGGAGCGCACCAGGUAGGUCGCCAUUUGGUGG [Tigedies],276
2,UUUAAAUAUAGUGAUGUUAUAUAACAAUGACGAGGACCGGUACGGCCGCCACUCGAGAGAGAUAAUGGUCGUUCGAAUCGAACGC [AstrosSSTryA#6],779
3,AGAGUUAUGAGAGGAUAUGCGGCUAGUACUCAAAGAGUACUAGCAGCGGAGUGAUGUUCUGCGAAAGCAGAAGGUUCAUAACUCA [#08 K4 FMN B Same State],622
4,UGAUACCAGACGGCCGCCACUAGGGCUAGCAAAGCUAGCAAGUGAUGUUUGAGGAGUGAUGUUCCUAGGACCGGGUCUGGUAUCU [TrypBX 1 #Palindromic #SwitchBubble #StaticStem],36.3
5,AGUAUGUAAUAUGGCAUAUUUAGAACUGAAGGAGCGCCGAAUAAGGCAGGUAGGUCGCGGAAUCAUGAGUGAUGUUCAUGACUAU [KL-SSArg-A26],116
6,CGCCGGAAGGCGGUCGCUCCCACUCCGGAAGGAGCGCCCGGAAGGGCAGGUAGGUCGCCGGAGUGAUGUUCCGGUGGAGGGACCG [#2 Exclusion - Arginine A Attempt #10 (Inspired by Omei)],117
7,AACAACUUGUUUGUCGGGUGUUCGCGCGAUACCAGCCGAAUGGAUGGCCCUUGGCAGCGCAGCGAGUGAUGUUCGCCCGCUUGAC [Exclusion Theophylline A GF 24],422
8,GGCAUGGUGGCAGGAUAUCCUAAUAGAGUGAUGUUCUAGCCCUCGUAGGCGAAAGCCUACGAGGGCGGAGAAGGGCCACCAUGCC,384
9,ACCAUCAAAGAUGGCCUCGACACCGCUGAUACCAGAGUGAAAACACUCCCUUGGCAGCAGGUGAGUGAUGUUCACAGUCGAAGGA [Omel KL Theo A SS B v1],464
10,UUUAUAUAGUCGGCCGCCACUGGAUUAAUAUUUGUAUAAUCUAGAUCAAAGUGAUGUUUUGAGUCCAGGACCGGGACAUUUGUUA [JR_ExcTryptoB_Sub006],391
11,CCGGACACCUCGGAUACCAGCCUGAGUGAUGUUCAAGCUGAACUCUCUUAAUAGGUCACCGGCCCUUGGCAGCCGCAUCCUAAGC [theeternabot_exclusion_KL_Theo_B_46],269
12,GUCAAGGGUGCGGCCGCCACUUCUAGUGAUGUUAGUUUGUCUUCGUUCAACCGGCGUCUGCACGCAAGGACCGGGCACCAGCGAC [theeternabot_exclusion_KL_Trp_B_10],350
13,CAGGUGCUGAUGCGGUGGCCGGUGGUCGUGCGAGGACCGGUACGGCCGCCACUCGCAUGAGUGAUGUUCAUGUGUCGUCGUCGUC [whbob_EX_Tryp_A_t2],136
14,GACCCAGAAGCACACCUAAAGUUGACAGAUACCAGCGUCGUUUGGCGCCCUUGGCAGCUGGUCAGUGAUGUUGAUAGCUUCGACU [theeternabot_sameState_KL_Theo_A_24],69.5
15,GCCAGUGAUGUUGGCAUUUCGAGCCAUGAAGGAGCGCACGGAAGUGCAGGUAGGUCGCAUGGUACUUAGGAUAUUAUCCUAAGUA [Antearxe],169
16,AAGCGUGUCGCGGCCGCCACUCCUGAGUGAUGUUCAGAAAGCAGUUUUUUAUUCAGGAAAAGCGCGAGGACCGGGCGACGCCGAU [theeternabot_sameState_KL_Trp_B_1],207

row,Sequence,apparent KD of K4 kissing-loop reporter [nM]
1,AGUGUGCAAAAGCACACUCAGUACAAGGACAAGGAUAUCUACUAAUAGAGAAGGUGUCCUUUCCUUAGUGAUGUUAAGGAGCUGA [Omei KL FMN A SS D v2],295
2,AGGGCGGAGUGAUGUUCCGGCUCCCGAUUUAAGGAUAUUGCGUAAACAAGAAGGUAAAGGCGCAGCAAUAUUAUUUCGUAAGGCG [theeternabot_exclusion_KL_FMN_A_23],103
3,AAAUAGAUCAGUCAUCCAGUGAUGUUGGAAGGAGCGUGCGAAAGCACAGGUAGGUCGCCAGAAUAAAAGUGGCUGAUCAAAAUAA,318
4,UGGACAUGACUCGAUAAGAGUCAAUGAGAUACCAGUGACGAAAGUCACCCUUGGCAGCUCAACUGCCAGUGAUGUUGGUAGUCCU [#SwitchBubble #StaticStem],424
5,CCAUUCAUUUACGAUACCAGUCUAAUAUAUUUAAUCAAAACCCUCGCCGAGUGAUGUUCGGACCCUUGGCAGCGUCUGCGACAGG [cyycmullin],333
6,GCCGUAGAUUGAAGGAGCGUUCUUCAGCAUACUUGCAGUGAUGUUGCAUUUUACAUGUAAGAACAGGUAGGUCGCAAUCUACGGC,119
7,ACUGGAAUUGUACUCCAGUGAUGUUGGAGGCAGGAUAUCCAGUAAAGGAGAAGGGCCAUCGCGCUAUUUAGCCGCAGGCGGCUAA [Atrilazaed],130
8,UGAUCAACAUCUGAUACCAGUCGCUCGAGUAAUCAACCGUGGCUAGUGAUGUUGGCUUUUGACCCUUGGCAGCAGAAUCGUGUCA [theeternabot_sameState_KL_Theo_B_20],131
9,GGACCUCAGUGAUGUUGAGGUAACACUGAUACCAGCGACUUAAUUCGCCCUUGGCAGCAGUCCACCGAGGUAUCUGAUUAGGUCU [#23 K4 Theophylline A Exclusion],220
10,UGGAGUUGACGAAAAGUCAACUCCUGAGAUACCAGUGACGAAAGUCACCCUUGGCAGCUCACUGGCAGUGAUGUUGCUAAAUAAA [KL-SSTheo-A2],51.4
11,UGUAAUGGCUGAGCAGCCGUGGUACGAGAUACCAGUGAUUUCGAUCACCCUUGGCAGCUCGGCGUGAGUGAUGUUCACGCUACAC [Theo A SS t12],199
12,UGAUACCAGACGGCCGCCACUCCCGUAAGUCAAAGACUUACGAAGAGGGUUUUUCAGUGAUGUUGGAGGACCGGGUCUGGUAUCU [FiskerMod 17 - Jieux - Exclusion - Tryptophan B],420
13,ACGUCCGGGUUAAUCGUGGGCGUGGUGGAUACCAGUUCUUUAAUGAACCCUUGGCAGCCACAUGAGUGAUGUUCAUGUGCGAUGA [KL-XTheo-A10 #analogue],102
14,CGCGAGUCCUUUCAGUGAGUGAUGUUUACGCGAGGACCGGUACGGCCGCCACUCGAUGGUAUACCAAGACAUCAGCAGAUUGUCU [theeternabot_exclusion_KL_Trp_A_18],304
15,GCGCGUCAUGUCAGCGGUGACACUGUCGAUACCAGCGCCGAAAGGCGCCCUUGGCAGCGACGUGCUGGAGUGAUGUUCCAGCGUG [#2 Exclusion - Theophylline A Attempt #25 (HarryS)],160

# Same assay, conditions: Eterna round: R107; input ligand: none
row,Sequence,apparent KD of K4 kissing-loop reporter [nM]
1,UCAGUGAUGUUGAACAAAUAAUGGUUCCUAAAGGAUAUCCACAGAUGGAGAAGGUUAGUAGCGGCUCGCACAUCGUAGGACAAAU [theeternabot_exclusion_KL_FMN_A_1],734
2,UUAGAUCAAAGAUCAGUCUUAUGGAGGGAACGAGGACCGGUACGGCCGCCACUCGAGUGAUGUUCGAGAACCCUCGUGACAAAUU [AK4 EXC Tryptophan A],189
3,ACGCGCGUGCGCUGGAAAGCGCACGCGCGUCGAGGACCGGUACGGCCGCCACUCGCUCGCGCCGAGUGAUGUUCGGCCGGCGAAC [#2 SameState - Tryptophan_A Attempt #2 (HarryS)],303
4,UGUACCGAGUCAGGAUAUGAACGACUGACAAAAGUCGGUCGAAUAUCCAGUGAUGUUGGAAAUAAAUCAGAAGGGACUUGGUACU [FmnBS 15 #SwitchBubble #StaticStem],974
5,GUUCUGAUGGAAACAUCGGAACAUACUGAUACCAGUAUCGAUAGAUACCCUUGGCAGCAGAAUCAGUAAUAACGAGUGAUGUUCG [Ex Theophylline A K4 2],293
6,GAUUCAGUGAUGUUGGAAGGCGAGCGGGAUACCAGCGGAGACUCACGCCCUUGGCAGCCCACAUAUCCCAGGUAGAUAAUAGAUC [Same State - Theophylline A (Freestyle 7)],178
7,UGAUACCAGACGGCCGCCACUACACCAGUCAAAGACUGGAUGUGAUGUUUGACCAGUGAUGUUGGUAGGACCGGGUCUGGUAUCU [TrypBX 5 #Palindromic #SwitchBubble #StaticStem],450
8,AAAAUAAGCCAGUGAUGUUGGGAUCCAGAUACCAGCGACGAAAGUCGCCCUUGGCAGCUGUGGACGUACAAAAUAAGUACGUCCU,1040
9,UCUCCAGUGAUGUUGGAGACGGAUGAGGAAGGAGCGGGCACGUGCCCAGGUAGGUCGCCUCGAAAGCCCUGUAGCAUCGCGAAAC [Disoribe],203
10,AAGGGCGGGACUUUCUCGCCGGAUAGAGAUACCAGCCCAGCAAUGGGCCCUUGGCAGCUCACUGACCUCAGUGAUGUUGAGGUUC [Quintege],213
11,AUCGUUGUCUGAGGAUAUCGGUUAUCUGUAGUGAUGUUACAGUAUAUUGAUAUUAUAGUUUCUUUUCGAGAAGGCAGACUACGUA [JR_Nu_ExcFMNB_Sub021],68.9
12,UCGCGUAAUGGAAGGAGCGGUGCCAGUGAUGUUGGAUACUGCGUGUAUUAGGUCGGAGCGCACCAGGUAGGUCGCCAUUUGGUGG [Tigedies],236
13,UUUAAAUAUAGUGAUGUUAUAUAACAAUGACGAGGACCGGUACGGCCGCCACUCGAGAGAGAUAAUGGUCGUUCGAAUCGAACGC [AstrosSSTryA#6],672
14,AGAGUUAUGAGAGGAUAUGCGGCUAGUACUCAAAGAGUACUAGCAGCGGAGUGAUGUUCUGCGAAAGCAGAAGGUUCAUAACUCA [#08 K4 FMN B Same State],1710
15,UGAUACCAGACGGCCGCCACUAGGGCUAGCAAAGCUAGCAAGUGAUGUUUGAGGAGUGAUGUUCCUAGGACCGGGUCUGGUAUCU [TrypBX 1 #Palindromic #SwitchBubble #StaticStem],52.2
16,AGUAUGUAAUAUGGCAUAUUUAGAACUGAAGGAGCGCCGAAUAAGGCAGGUAGGUCGCGGAAUCAUGAGUGAUGUUCAUGACUAU [KL-SSArg-A26],123
17,CGCCGGAAGGCGGUCGCUCCCACUCCGGAAGGAGCGCCCGGAAGGGCAGGUAGGUCGCCGGAGUGAUGUUCCGGUGGAGGGACCG [#2 Exclusion - Arginine A Attempt #10 (Inspired by Omei)],113
18,AACAACUUGUUUGUCGGGUGUUCGCGCGAUACCAGCCGAAUGGAUGGCCCUUGGCAGCGCAGCGAGUGAUGUUCGCCCGCUUGAC [Exclusion Theophylline A GF 24],552
19,GGCAUGGUGGCAGGAUAUCCUAAUAGAGUGAUGUUCUAGCCCUCGUAGGCGAAAGCCUACGAGGGCGGAGAAGGGCCACCAUGCC,697
20,ACCAUCAAAGAUGGCCUCGACACCGCUGAUACCAGAGUGAAAACACUCCCUUGGCAGCAGGUGAGUGAUGUUCACAGUCGAAGGA [Omel KL Theo A SS B v1],641
21,UUUAUAUAGUCGGCCGCCACUGGAUUAAUAUUUGUAUAAUCUAGAUCAAAGUGAUGUUUUGAGUCCAGGACCGGGACAUUUGUUA [JR_ExcTryptoB_Sub006],486

# From the supplement of paper PMC9170038
